Results taken from IntAct's records for PubMed 25220469.

B1: Small G protein signaling modulator 1 (Mus musculus), Q8BPQ7-1 (parent)
chain: MASVPAEAETRQRLLRTVKKEVKQIMEEAVTRKFVHEDSSHIISFCAAVEACVLHGLRRRAAGFLRSNKIAALFMKVGKGFPPAEELSRKVQELEQLIESARNQIQGLQENVRKLPKLPNLSPLAIKHLWIRTALFGRVLDKIVHYLVENSSKYYEKEALLMDPVDGPILASLLVGPCALEYTKMKTADHFWTDPSADELVQRHRIHSSHLRQDSPTKRPALCIQKRHSSGSMDDRPSISARDYVESLHQDSRATLLYGKNNVLVQPRDDMEAVPGYLSLHQTADVMTLKWTPNQLMNGSVGDLDYEKSVYWDYAVTIRLEEIVYLHCHQQVDSGGTVVLVSQDGIQRPPFRFPKGGHLLQFLSCLENGLLPHGQLDPPLWSQRGKGKVFPKLRKRSPQGSSESTSSDKEDDEATDYVFRIIYPGTQSEFVPQDLMDVSMNNLPPLWQPSPRKSSCSSCSQSGSADGGSTNGCNHERAPLKLLCDNMKYQILSRAFYGWLAYCRHLSTVRTHLSALVNHMIVSPDLPCDAGQGLTASIWEKYIQDSTTYPEQELLRLIYYGGVQPEIRRAVWPFLLGHYQFGMTEMERKEVDEQIHACYAQTMSEWLGCEAIVRQRERESHAAALAKCSSGASLDSHLHRMLHRDSTISNESSQSCSSGRQNLRLQSDSSSSTQVFESVDEVEQTEAEGRSEEKHPKIPNGNPANGTCSPDSGHPSSHNFSSGLSEHSEPSLSTEDSVLDAQRSLPAVFRPGDSSVEDGQSSEATTSRDEAPREELAVQDSLESDLLANESLEEFMSIPGSLDVALPEKDGAVMDGWPGEADKPSRADSEDNLSEEPEMESLFPALASLAVTSSANNEASPVSSSGVTYSPELLDLYTVNLHRIEKDVQRCDRSYWYFTAANLEKLRNIMCSYIWQHIEIGYVQGMCDLLAPLLVILDDEALAFSCFTELMKRMNQNFPHGGAMDTHFANMRSLIQILDSELFELMHQNGDYTHFYFCYRWFLLDFKRELVYDDVFSVWETIWAAKHVSSAHYVLFIALALVEVYRDIILENNMDFTDIIKFFNEMAERHNAKQILQLARDLVHKVQILIENK
partner: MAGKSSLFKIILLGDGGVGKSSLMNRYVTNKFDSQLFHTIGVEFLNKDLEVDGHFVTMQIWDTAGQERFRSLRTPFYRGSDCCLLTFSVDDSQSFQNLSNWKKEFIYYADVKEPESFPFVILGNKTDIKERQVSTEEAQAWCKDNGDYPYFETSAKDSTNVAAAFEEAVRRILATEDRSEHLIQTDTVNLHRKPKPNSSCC
B2: Ras-related protein Rab-9A (Mus musculus), Q9R0M6 (parent)
chain: B1 partner
partner: B1 chain

Variants of: B1
Settings: with rab9a_mouse Rab9a

effect of a mutation on the interaction | Variant
disrupting interaction strength | N261A
disrupting interaction strength | L256A
disrupting interaction strength | M297A
disrupting interaction strength | Y277A
disrupting interaction strength | N294A
disrupting interaction strength | K260A

Variants of: B1
Settings: with rab9a_mouse Rab9a
Remark: another data set of the same source

effect of a mutation on the interaction | Variant
decreasing interaction strength | L256A
decreasing interaction strength | M297A
decreasing interaction strength | K260A

Variants of: B2
Settings: with Sgsm1, Q8BPQ7-1

effect of a mutation on the interaction | Variant
disrupting interaction strength | MAGKSSLFKIILLGDGGVGKSSLMNRYVTNKFDSQLFHTIAVEFLNKDLEVDGHFVTMQIWDTAGQERFRSLRTPFYRGSDCCLLTFSVDDSQSFQNLSNWKKEFIYYADVKEPESFPFVILGNKTDIKERQVSTEEAQAWCKDNGDYPYFETSAKDSTNVAAAFEEAVRRILATEDRSEHLIQTDTVNLHRKPKPNSSCC [G41A]
disrupting interaction strength | MAGKSSLFKIILLGDGGVGKSSLMNRYVTNKFDSQLFHTIDVEFLNKDLEVDGHFVTMQIWDTAGQERFRSLRTPFYRGSDCCLLTFSVDDSQSFQNLSNWKKEFIYYADVKEPESFPFVILGNKTDIKERQVSTEEAQAWCKDNGDYPYFETSAKDSTNVAAAFEEAVRRILATEDRSEHLIQTDTVNLHRKPKPNSSCC [G41D]
decreasing interaction strength | MAGKSSLFKIILLGDGGVGKSSLMNRYVTNKFDSQLFHTIGVEALNKDLEVDGHFVTMQIWDTAGQERFRSLRTPFYRGSDCCLLTFSVDDSQSFQNLSNWKKEFIYYADVKEPESFPFVILGNKTDIKERQVSTEEAQAWCKDNGDYPYFETSAKDSTNVAAAFEEAVRRILATEDRSEHLIQTDTVNLHRKPKPNSSCC [F44A]
decreasing interaction strength | MAGKSSLFKIILLGDGGVGKSSLMNRYVTNKFDSQLFHTIGAEFLNKDLEVDGHFVTMQIWDTAGQERFRSLRTPFYRGSDCCLLTFSVDDSQSFQNLSNWKKEFIYYADVKEPESFPFVILGNKTDIKERQVSTEEAQAWCKDNGDYPYFETSAKDSTNVAAAFEEAVRRILATEDRSEHLIQTDTVNLHRKPKPNSSCC [V42A]
decreasing interaction strength | MAGKSSLFKIILLGDGGVGKSSLMNRYVTNKFDSQLFHTIGVEFLNKDLEVDGHFVTMQIADTAGQERFRSLRTPFYRGSDCCLLTFSVDDSQSFQNLSNWKKEFIYYADVKEPESFPFVILGNKTDIKERQVSTEEAQAWCKDNGDYPYFETSAKDSTNVAAAFEEAVRRILATEDRSEHLIQTDTVNLHRKPKPNSSCC [W61A]
decreasing interaction strength | MAGKSSLFKIILLGDGGVGKSSLMNRYVTNKFDSQLFHTAGVEFLNKDLEVDGHFVTMQIWDTAGQERFRSLRTPFYRGSDCCLLTFSVDDSQSFQNLSNWKKEFIYYADVKEPESFPFVILGNKTDIKERQVSTEEAQAWCKDNGDYPYFETSAKDSTNVAAAFEEAVRRILATEDRSEHLIQTDTVNLHRKPKPNSSCC [I40A]
decreasing interaction strength | MAGKSSLFKIILLGDGGVGKSSLMNRYVTNKFDSQLFHTIGVEFLNKDLEVDGHFVTMQIWDTAGQERFRSLRTPAYRGSDCCLLTFSVDDSQSFQNLSNWKKEFIYYADVKEPESFPFVILGNKTDIKERQVSTEEAQAWCKDNGDYPYFETSAKDSTNVAAAFEEAVRRILATEDRSEHLIQTDTVNLHRKPKPNSSCC [F76A]
decreasing interaction strength | MAGKSSLFKIILLGDGGVGKSSLMNRYVTNKFDSQLFHTIGVAFLNKDLEVDGHFVTMQIWDTAGQERFRSLRTPFYRGSDCCLLTFSVDDSQSFQNLSNWKKEFIYYADVKEPESFPFVILGNKTDIKERQVSTEEAQAWCKDNGDYPYFETSAKDSTNVAAAFEEAVRRILATEDRSEHLIQTDTVNLHRKPKPNSSCC [E43A]

Variants of: B2
Settings: with Sgsm1, Q8BPQ7-1
Remark: another data set of the same source

effect of a mutation on the interaction | Variant
decreasing interaction strength | MAGKSSLFKIILLGDGGVGKSSLMNRYVTNKFDSQLFHTIAVEFLNKDLEVDGHFVTMQIWDTAGQERFRSLRTPFYRGSDCCLLTFSVDDSQSFQNLSNWKKEFIYYADVKEPESFPFVILGNKTDIKERQVSTEEAQAWCKDNGDYPYFETSAKDSTNVAAAFEEAVRRILATEDRSEHLIQTDTVNLHRKPKPNSSCC [G41A]
decreasing interaction strength | MAGKSSLFKIILLGDGGVGKSSLMNRYVTNKFDSQLFHTIDVEFLNKDLEVDGHFVTMQIWDTAGQERFRSLRTPFYRGSDCCLLTFSVDDSQSFQNLSNWKKEFIYYADVKEPESFPFVILGNKTDIKERQVSTEEAQAWCKDNGDYPYFETSAKDSTNVAAAFEEAVRRILATEDRSEHLIQTDTVNLHRKPKPNSSCC [G41D]
decreasing interaction strength | MAGKSSLFKIILLGDGGVGKSSLMNRYVTNKFDSQLFHTIGVEFLNKDLEVDGHFVTMQIWDTAGQERFRSARTPFYRGSDCCLLTFSVDDSQSFQNLSNWKKEFIYYADVKEPESFPFVILGNKTDIKERQVSTEEAQAWCKDNGDYPYFETSAKDSTNVAAAFEEAVRRILATEDRSEHLIQTDTVNLHRKPKPNSSCC [L72A]
decreasing interaction strength | MAGKSSLFKIILLGDGGVGKSSLMNRYVTNKFDSQLFHTIGVEFLNKDLEVDGHFVTMQIWDTAGQERARSLRTPFYRGSDCCLLTFSVDDSQSFQNLSNWKKEFIYYADVKEPESFPFVILGNKTDIKERQVSTEEAQAWCKDNGDYPYFETSAKDSTNVAAAFEEAVRRILATEDRSEHLIQTDTVNLHRKPKPNSSCC [F69A]
